Experiments:
[1] = target: the molecule itself; assay: SEC-MALS; 200 uM protein injected on a WTC-0303 column, buffer A with 10 mM PEP, 25 °C; dimer to monomers
[2] = target: the molecule itself; assay: SEC-MALS; 200 uM protein injected on a WTC-0303 column, buffer A (20 mM Tris/HCl pH 7.4, 100 mM NaCl, 2 mM β-mercaptoethanol, 4 mM MgCl2), 25 °C, without PEP; 50 uM elution concentration; KD (dimer to monomers) estimated from the dimer fraction, semiquantitative

Row | Protein | percent dimer [1] [%] | Kd [2] [µM] | stoichiometry N [2] | stoichiometry N [1]
1 | C-terminal domain of enzyme I with the G356S mutation, EIC(G356S) (domain or fragment, C-terminal dimerization domain (EIC) of enzyme I, E. coli, residues 231-575, with G356S; also called EIC(G365S) (misprint in the text); source: E. coli BL21star (DE3), purified (DEAE or HisTrap, Superdex, monoQ)) not shown | ~80 | ≥ 5 | 2 | 
2 | Enzyme I (EI) with the active site H189A mutation, EI(1-575, H189A) (enzyme, Enzyme I (EI) of the bacterial phosphotransferase system, E. coli, full length EI(1-575), with H189A; also called EIA; EI(H189A); source: E. coli BL21star (DE3), purified (DEAE or HisTrap, Superdex, monoQ)) not shown | > 90 | ~0.4 | 2 | 
3 | C-terminal domain of enzyme I, EIC(231-575) (domain or fragment, C-terminal dimerization domain (EIC) of enzyme I, E. coli, residues 231-575, includes part of the connecting helix 231-260; source: E. coli BL21star (DE3), purified (DEAE or HisTrap, Superdex, monoQ)) not shown |  |  | 2 | 
4 | Enzyme I with the H189A and G356S mutations, EIA(G356S) (enzyme, Enzyme I (EI) of the bacterial phosphotransferase system, E. coli, full length EI(1-575), with H189A and G356S; also called EI(G356S); source: E. coli BL21star (DE3), purified (DEAE or HisTrap, Superdex, monoQ)) not shown | > 90 | ~30 |  | 2

Reference: article PMC5537066, “Dimerization facilitates the conformational transitions for bacterial phosphotransferase enzyme I autophosphorylation in an allosteric manner” (FEBS Open Bio, 2017)
